Measured values from article PMC9786865, “Molecular Cloning and Characterization of a New Family VI Esterase from an Activated Sludge Metagenome” (Microorganisms, 2022).

Substrate: CC(=O)Oc1ccc([N+](=O)[O-])cc1
Test: purified protein
Format: biochemical, uncultured sludge bacterium
Details: 50 mM Tris-HCl pH 8.0, 40 °C, 5 min, 0.08-1.0 mM substrate

B1: Est6 (uncultured sludge bacterium) (protein)
chain: MTELRINDDLVRWTVDRRPATADEALRALETRPLVLLMHGFGSFEGDLISLAAELPDGIVCASPRAPLTLPPPTVNGYAWWEIVFRADGTVVRSDPPAFEDSDAHTATLAILAWLDALDARVAGGLRTVVPLGFSQGGCMVTSLLRMQPTRFPCGVNCSGFVAPGSYAGDPELAAIRPPLFWGRDPADPIIEAERIDATAVWSAAHTAIEAHIYHGIGHGIGREEIADISAFIERHLAEAEH
notes: pPAL7 N-terminal Profinity eXact tag cleaved on column; E. coli BL21 Star (DE3); monomer; primers encode MTELRI... start and ...AEAEH end
Km: 1070 µM
kcat: 10.46 s⁻¹
